Series [1] has as its system HeLa Kyoto. In words: solubility in G1/S (NP-40 vs SDS abundance) (log2 ratio); higher = more soluble. The settings on record: cell cycle stage: G1/S.
Series [2] concerns HeLa Kyoto. In words: melting temperature (median over replicates), in situ; higher = more thermally stable.
Series [3] relates to HeLa Kyoto. In words: solubility change mitosis vs G1/S (difference of NP-40 vs SDS log2 ratios) (log2 ratio difference); higher = more soluble in mitosis.
For series [4], the system named is HeLa Kyoto. Description: thermal stability score vs G1/S (z-score of summed log2 fold changes over temperatures); higher = more thermally stable than in G1/S.
The mark [5] stands for this setting: cell cycle stage: early G1 (4.5 h after nocodazole release).
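Wherever melting temperature (median over replicates), in situ is given: HeLa Kyoto cells synchronized by double thymidine or nocodazole block, proteins quantified by TMT10plex mass spectrometry, three independent biological replicates.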
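Wherever solubility change mitosis vs G1/S (difference of NP-40 vs SDS log2 ratios) is given: synchronized HeLa Kyoto cells (double thymidine block for G1/S, nocodazole release for mitosis), protein amounts in NP-40 versus SDS lysates quantified by mass spectrometry, three biological replicates.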
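Wherever solubility in G1/S (NP-40 vs SDS abundance) is given: HeLa Kyoto cells arrested at G1/S by double thymidine block, proteins quantified by TMT10plex mass spectrometry in mild NP-40 versus SDS extracts, three biological replicates.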
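Wherever thermal stability score vs G1/S (z-score of summed log2 fold changes over temperatures) is given: synchronized HeLa Kyoto cells, proteins quantified by TMT10plex mass spectrometry, three biological replicates, mitosis taken 0.5 h after nocodazole release, G1/S directly after double thymidine block.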

Consider “MSAGEVERLVSELSGGTGGDEEEEWLYGGPWDVHVHSDLAKDLDENEVERPEEENASANPPSGIEDETAENGVPKPKVTETEDDSDSDSDDDEDDVHVTIGDIKTGAPQYGSYGTAPVNLNIKTGGRVYGTTGTKVKGVDLDAPGSINGVPLLEVDLDSFEDKPWRKPGADLSDYFNYGFNEDTWKAYCEKQKRIRMGLEVIPVTSTTNKITAEDCTMEVTPGAEIQDGRFNLFKVQQGRTGNSEKETALPSTKAEFTSPPSLFKTGLPPSRNSTSSQSQTSTASRKANSSVGKWQDRYGRAESPDLRRLPGAIDVIGQTITISRVEGRRRANENSNIQVLSERSATEVDNNFSKPPPFFPPGAPPTHLPPPPFLPPPPTVSTAPPLIPPPGFPPPPGAPPPSLIPTIESGHSSGYDSRSARAFPYGNVAFPHLPGSAPSWPSLVDTSKQWDYYARREKDRDRERDRDRERDRDRDRERERTRERERERDHSPTPSVFNSDEERYRYREYAERGYERHRASREKEERHRERRHREKEETRHKSSRSNSRRRHESEEGDSHRRHKHKKSKRSKEGKEAGSEPAPEQESTEATPAE [FIP1L1]”, for which the “solubility in G1/S (log2)” value with HeLa Kyoto [1] was -0.594. The melting temperature stood at 48.8 °C in the series with HeLa Kyoto [2] (cell cycle stage: G1/S) and 49.9 °C with HeLa Kyoto [2] (cell cycle stage: mitosis). For the same sequence, the “solubility change mitosis (log2)” value with HeLa Kyoto [3] turned out to be 0.265. In addition, the thermal stability score in the series on HeLa Kyoto [4] (setting [5]) amounted to 0.669; with HeLa Kyoto [4] (cell cycle stage: mitosis), 2.71.

With “MSAIPAEESDQLLIRPLGAGQEVGRSCIILEFKGRKIMLDCGIHPGLEGMDALPYIDLIDPAEIDLLLISHFHLDHCGALPWFLQKTSFKGRTFMTHATKAIYRWLLSDYVKVSNISADDMLYTETDLEESMDKIETINFHEVKEVAGIKFWCYHAGHVLGAAMFMIEIAGVKLLYTGDFSRQEDRHLMAAEIPNIKPDILIIESTYGTHIHEKREEREARFCNTVHDIVNRGGRGLIPVFALGRAQELLLILDEYWQNHPELHDIPIYYASSLAKKCMAVYQTYVNAMNDKIRKQININNPFVFKHISNLKSMDHFDDIGPSVVMASPGMMQSGLSRELFESWCTDKRNGVIIAGYCVEGTLAKHIMSEPEEITTMSGQKLPLKMSVDYISFSAHTDYQQTSEFIRALKPPHVILVHGEQNEMARLKAALIREYEDNDEVHIEVHNPRNTEAVTLNFRGEKLAKVMGFLADKKPEQGQRVSGILVKRNFNYHILSPCDLSNYTDLAMSTVKQTQAIPYTGPFNLLCYQLQKLTGDVEELEIQEKPALKVFKNITVIQEPGMVVLEWLANPSNDMYADTVTTVILEVQSNPKIRKGAVQKVSKKLEMHVYSKRLEIMLQDIFGEDCVSVKDDSILSVTVDGKTANLNLETRTVECEEGSEDDESLREMVELAAQRLYEALTPVH [CPSF3]”, the “solubility in G1/S (log2)” value in the series with HeLa Kyoto [1] was -0.183. In addition, the values for the melting temperature with HeLa Kyoto [2] (cell cycle stage: G1/S) and in the series with HeLa Kyoto [2] (cell cycle stage: mitosis) were 51.2 °C and 50.5 °C, respectively. Also, in the series with HeLa Kyoto [3], the “solubility change mitosis (log2)” value was -0.00173. In addition, the results for the thermal stability score in the series on HeLa Kyoto [4] (setting [5]) and with HeLa Kyoto [4] (cell cycle stage: mitosis) were 0.918 and 1.38, respectively.

For the sequence “MSALLRLLRTGAPAAACLRLGTSAGTGSRRAMALYHTEERGQPCSQNYRLFFKNVTGHYISPFHDIPLKVNSKEENGIPMKKARNDEYENLFNMIVEIPRWTNAKMEIATKEPMNPIKQYVKDGKLRYVANIFPYKGYIWNYGTLPQTWEDPHEKDKSTNCFGDNDPIDVCEIGSKILSCGEVIHVKILGILALIDEGETDWKLIAINANDPEASKFHDIDDVKKFKPGYLEATLNWFRLYKVPDGKPENQFAFNGEFKNKAFALEVIKSTHQCWKALLMKKCNGGAINCTNVQISDSPFRCTQEEARSLVESVSSSPNKESNEEEQVWHFLGK [PPA2]”, the “solubility in G1/S (log2)” value in the series with HeLa Kyoto [1] was 0.442. The values for the melting temperature in the series with HeLa Kyoto [2] (cell cycle stage: G1/S) and in the series with HeLa Kyoto [2] (cell cycle stage: mitosis) were 54.8 °C and 55.1 °C, respectively. Further, in the series with HeLa Kyoto [3], the “solubility change mitosis (log2)” value is 0.0395. The values for the thermal stability score in the series with HeLa Kyoto [4] (setting [5]) and in the series with HeLa Kyoto [4] (cell cycle stage: mitosis) were -1.33 and -2, respectively.

Take “MSAQAQMRALLDQLMGTARDGDETRQRVKFTDDRVCKSHLLDCCPHDILAGTRMDLGECTKIHDLALRADYEIASKERDLFFELDAMDHLESFIAECDRRTELAKKRLAETQEEISAEVSAKAEKVHELNEEIGKLLAKAEQLGAEGNVDESQKILMEVEKVRAKKKEAEEEYRNSMPASSFQQQKLRVCEVCSAYLGLHDNDRRLADHFGGKLHLGFIQIREKLDQLRKTVAEKQEKRNQDRLRRREEREREERLSRRSGSRTRDRRRSRSRDRRRRRSRSTSRERRKLSRSRSRDRHRRHRSRSRSHSRGHRRASRDRSAKYKFSRERASREESWESGRSERGPPDWRLESSNGKMASRRSEEKEAGEI [LUC7L]”: the “solubility in G1/S (log2)” value with HeLa Kyoto [1] was -0.598. For the same sequence, the results for the melting temperature in the series with HeLa Kyoto [2] (cell cycle stage: G1/S) and in the series with HeLa Kyoto [2] (cell cycle stage: mitosis) were 50.1 °C and 51.4 °C, respectively. Also, in the series on HeLa Kyoto [3], the “solubility change mitosis (log2)” value amounted to 0.353. In addition, the thermal stability score was determined as 1.93 in the series with HeLa Kyoto [4] (setting [5]) and 1.87 in the series on HeLa Kyoto [4] (cell cycle stage: mitosis).

Take “MSAQAQMRAMLDQLMGTSRDGDTTRQRIKFSDDRVCKSHLLNCCPHDVLSGTRMDLGECLKVHDLALRADYEIASKEQDFFFELDAMDHLQSFIADCDRRTEVAKKRLAETQEEISAEVAAKAERVHELNEEIGKLLAKVEQLGAEGNVEESQKVMDEVEKARAKKREAEEVYRNSMPASSFQQQKLRVCEVCSAYLGLHDNDRRLADHFGGKLHLGFIEIREKLEELKRVVAEKQEKRNQERLKRREEREREEREKLRRSRSHSKNPKRSRSREHRRHRSRSMSRERKRRTRSKSREKRHRHRSRSSSRSRSRSHQRSRHSSRDRSRERSKRRSSKERFRDQDLASCDRDRSSRDRSPRDRDRKDKKRSYESANGRSEDRRSSEEREAGEI [LUC7L2]”: the “solubility in G1/S (log2)” value in the series with HeLa Kyoto [1] is -0.803. The values for the melting temperature with HeLa Kyoto [2] (cell cycle stage: G1/S) and in the series on HeLa Kyoto [2] (cell cycle stage: mitosis) were 48.6 °C and 50.7 °C, respectively. Further, the “solubility change mitosis (log2)” value in the series on HeLa Kyoto [3] was found to be 0.251. In addition, the thermal stability score is 2.1 in the series on HeLa Kyoto [4] (setting [5]) and 3.71 with HeLa Kyoto [4] (cell cycle stage: mitosis).

In the case of “MSASAPAAEGEGTPTQPASEKEPEMPGPREESEEEEDEDDEEEEEEEKEKSLIVEGKREKKKVERLTMQVSSLQREPFTIAQGKGQKLCEIERIHFFLSKKKTDELRNLHKLLYNRPGTVSSLKKNVGQFSGFPFEKGSVQYKKKEEMLKKFRNAMLKSICEVLDLERSGVNSELVKRILNFLMHPKPSGKPLPKSKKTCSKGSKKERNSSGMARKAKRTKCPEILSDESSSDEDEKKNKEESSDDEDKESEEEPPKKTAKREKPKQKATSKSKKSVKSANVKKADSSTTKKNQNSSKKESESEDSSDDEPLIKKLKKPPTDEELKETIKKLLASANLEEVTMKQICKKVYENYPTYDLTERKDFIKTTVKELIS”, the “solubility in G1/S (log2)” value in the series on HeLa Kyoto [1] was -0.0398. Moreover, the melting temperature in the series on HeLa Kyoto [2] (cell cycle stage: G1/S) was determined as 48.8 °C; in the series on HeLa Kyoto [2] (cell cycle stage: mitosis), 50.7 °C. In addition, the “solubility change mitosis (log2)” value in the series on HeLa Kyoto [3] is 0.338. Besides, the thermal stability score in the series on HeLa Kyoto [4] (setting [5]) was 7.97; with HeLa Kyoto [4] (cell cycle stage: mitosis), 13.2.

Take “MSASAQQLAEELQIFGLDCEEALIEKLVELCVQYGQNEEGMVGELIAFCTSTHKVGLTSEILNSFEHEFLSKRLSKARHSTCKDSGHAGARDIVSIQELIEVEEEEEILLNSYTTPSKGSQKRAISTPETPLTKRSVSTRSPHQLLSPSSFSPSATPSQKYNSRSNRGEVVTSFGLAQGVSWSGRGGAGNISLKVLGCPEALTGSYKSMFQKLPDIREVLTCKIEELGSELKEHYKIEAFTPLLAPAQEPVTLLGQIGCDSNGKLNNKSVILEGDREHSSGAQIPVDLSELKEYSLFPGQVVIMEGINTTGRKLVATKLYEGVPLPFYQPTEEDADFEQSMVLVACGPYTTSDSITYDPLLDLIAVINHDRPDVCILFGPFLDAKHEQVENCLLTSPFEDIFKQCLRTIIEGTRSSGSHLVFVPSLRDVHHEPVYPQPPFSYSDLSREDKKQVQFVSEPCSLSINGVIFGLTSTDLLFHLGAEEISSSSGTSDRFSRILKHILTQRSYYPLYPPQEDMAIDYESFYVYAQLPVTPDVLIIPSELRYFVKDVLGCVCVNPGRLTKGQVGGTFARLYLRRPAADGAERQSPCIAVQVVRI [POLA2]”: the “solubility in G1/S (log2)” value in the series with HeLa Kyoto [1] is 0.0737. The melting temperature in the series on HeLa Kyoto [2] (cell cycle stage: G1/S) came out at 48.8 °C; with HeLa Kyoto [2] (cell cycle stage: mitosis) it was 50.2 °C. In the series on HeLa Kyoto [3], the “solubility change mitosis (log2)” value was -0.155. For the same sequence, the thermal stability score was found to be 1.44 in the series with HeLa Kyoto [4] (setting [5]) and 4.66 in the series on HeLa Kyoto [4] (cell cycle stage: mitosis).

The values above are taken from the supplement of paper PMC5998384.
